Data set [1] deals with the molecule itself. In words: crystal structure.
Data set [2] concerns the molecule itself. The data set is described as follows: crystal structure. The source holds these as a separate data set.

Where two headings read alike, the source gives them in different places.

B1: OpgD from E. coli (EcOpgD) D388N mutant (enzyme, Escherichia coli, UniProt P40120 33-551, looked up)
chain: ADSDIADGQTQRFDFSILQSMAHDLAQTAWRGAPRPLPDTLATMTPQAYNSIQYDAEKSLWHNVENRQLDAQFFHMGMGFRRRVRMFSVDPATHLAREIHFRPELFKYNDAGVDTKQLEGQSDLGFAGFRVFKAPELARRDVVSFLGASYFRAVDDTYQYGLSARGLAIDTYTDSKEEFPDFTAFWFDTVKPGATTFTVYALLDSASITGAYKFTIHCEKSQVIMDVENHLYARKDIKQLGIAPMTSMFSCGTNERRMCDTIHPQIHDSDRLSMWRGNGEWICRPLNNPQKLQFNAYTDNNPKGFGLLQLDRDFSHYQDIMGWYNKRPSLWVEPRNKWGKGTIGLMEIPTTGETLNNIVCFWQPEKAVKAGDEFAFQYRLYWSAQPPVHCPLARVMATRTGMGGFSEGWAPGEHYPEKWARRFAVDFVGGDLKAAAPKGIEPVITLSSGEAKQIEILYIEPIDGYRIQFDWYPTSDSTDPVDMRMYLRCQGDAISETWLYQYFPPAPDKRQYVDDRVMS
On to B1, for which the binding result in the data set “crystal structure [1]” was “binds”.

B2: OpgG from E. coli (EcOpgG) D361N mutant (enzyme, Escherichia coli, UniProt P33136 23-511, looked up)
chain: FSIDDVAKQAQSLAGKGYETPKSNLPSVFRDMKYADYQQIQFNHDKAYWNNLKTPFKLEFYHQGMYFDTPVKINEVTATAVKRIKYSPDYFTFGDVQHDKDTVKDLGFAGFKVLYPINSKDKNDEIVSMLGASYFRVIGAGQVYGLSARGLAIDTALPSGEEFPRFKEFWIERPKPTDKRLTIYALLDSPRATGAYKFVVMPGRDTVVDVQSKIYLRDKVGKLGVAPLTSMFLFGPNQPSPANNYRPELHDSNGLSIHAGNGEWIWRPLNNPKHLAVSSFSMENPQGFGLLQRGRDFSRFEDLDDRYDLRPSAWVTPKGEWGKGSVELVEIPTNDETNNNIVAYWTPDQLPEPGKEMNFKYTITFSRDEDKLHAPDNAWVQQTRRSTGDVKQSNLIRQPDGTIAFVVDFTGAEMKKLPEDTPVTAQTSIGDNGEIVESTVRYNPVTKGWRLVMRVKVKDAKKTTEMRAALVNADQTLSETWSYQLPANE
Consider B2, for which the binding result in “crystal structure [2]” is listed as “binds”.

Values taken from article doi:10.1101/2023.03.29.533101 (bioRxiv, 2023).
